Assay results from article PMC7367873, “Dissecting the sequence determinants for dephosphorylation by the catalytic subunits of phosphatases PP1 and PP2A” (Nature Communications, 2020).
Each block holds one molecule with its values, some of them ahead of it.

What was measured:
GFP-14-3-3β = GFP-14-3-3β co-IP with LC-MS/MS, untreated GFP-14-3-3β versus GFP control (14-3-3 interactome); type: binding, human; details: pairwise comparison untreated vs GFP
[1] = tested on: GFP-14-3-3β and its binding proteins; test: GFP-14-3-3β co-IP with LC-MS/MS label-free quantification, untreated versus PP1c-treated; design: species or system human; details: pairwise comparison PP1 vs untreated
[2] = log2 difference, label-free quantification, 3 replicates each

B2: PRPF6 (protein, UniProt O94906 1-941, looked up)
Pre-mRNA-processing factor 6: MNKKKKPFLGMPAPLGYVPGLGRGATGFTTRSDIGPARDANDPVDDRHAPPGKRTVGDQMKKNQAADDDDEDLNDTNYDEFNGYAGSLFSSGPYEKDDEEADAIYAALDKRMDERRKERREQREKEEIEKYRMERPKIQQQFSDLKRKLAEVTEEEWLSIPEVGDARNKRQRNPRYEKLTPVPDSFFAKHLQTGENHTSVDPRQTQFGGLNTPYPGGLNTPYPGGMTPGLMTPGTGELDMRKIGQARNTLMDMRLSQVSDSVSGQTVVDPKGYLTDLNSMIPTHGGDINDIKKARLLLKSVRETNPHHPPAWIASARLEEVTGKLQVARNLIMKGTEMCPKSEDVWLEAARLQPGDTAKAVVAQAVRHLPQSVRIYIRAAELETDIRAKKRVLRKALEHVPNSVRLWKAAVELEEPEDARIMLSRAVECCPTSVELWLALARLETYENARKVLNKARENIPTDRHIWITAAKLEEANGNTQMVEKIIDRAITSLRANGVEINREQWIQDAEECDRAGSVATCQAVMRAVIGIGIEEEDRKHTWMEDADSCVAHNALECARAIYAYALQVFPSKKSVWLRAAYFEKNHGTRESLEALLQRAVAHCPKAEVLWLMGAKSKWLAGDVPAARSILALAFQANPNSEEIWLAAVKLESENDEYERARRLLAKARSSAPTARVFMKSVKLEWVQDNIRAAQDLCEEALRHYEDFPKLWMMKGQIEEQKEMMEKAREAYNQGLKKCPHSTPLWLLLSRLEEKIGQLTRARAILEKSRLKNPKNPGLWLESVRLEYRAGLKNIANTLMAKALQECPNSGILWSEAIFLEARPQRRTKSVDALKKCEHDPHVLLAVAKLFWSQRKITKAREWFHRTVKIDSDLGDAWAFFYKFELQHGTEEQQEEVRKRCESAEPRHGELWCAVSKDIANWQKKIGDILRLVAGRIKNTF
- Difference (log2), untreated vs GFP (GFP-14-3-3β): 1.324 log2
- Difference (log2), PP1 vs untreated [1]: 0.1336 log2

B5: ADAR (protein, UniProt P55265 1-1226, looked up)
Double-stranded RNA-specific …: MNPRQGYSLSGYYTHPFQGYEHRQLRYQQPGPGSSPSSFLLKQIEFLKGQLPEAPVIGKQTPSLPPSLPGLRPRFPVLLASSTRGRQVDIRGVPRGVHLRSQGLQRGFQHPSPRGRSLPQRGVDCLSSHFQELSIYQDQEQRILKFLEELGEGKATTAHDLSGKLGTPKKEINRVLYSLAKKGKLQKEAGTPPLWKIAVSTQAWNQHSGVVRPDGHSQGAPNSDPSLEPEDRNSTSVSEDLLEPFIAVSAQAWNQHSGVVRPDSHSQGSPNSDPGLEPEDSNSTSALEDPLEFLDMAEIKEKICDYLFNVSDSSALNLAKNIGLTKARDINAVLIDMERQGDVYRQGTTPPIWHLTDKKRERMQIKRNTNSVPETAPAAIPETKRNAEFLTCNIPTSNASNNMVTTEKVENGQEPVIKLENRQEARPEPARLKPPVHYNGPSKAGYVDFENGQWATDDIPDDLNSIRAAPGEFRAIMEMPSFYSHGLPRCSPYKKLTECQLKNPISGLLEYAQFASQTCEFNMIEQSGPPHEPRFKFQVVINGREFPPAEAGSKKVAKQDAAMKAMTILLEEAKAKDSGKSEESSHYSTEKESEKTAESQTPTPSATSFFSGKSPVTTLLECMHKLGNSCEFRLLSKEGPAHEPKFQYCVAVGAQTFPSVSAPSKKVAKQMAAEEAMKALHGEATNSMASDNQPEGMISESLDNLESMMPNKVRKIGELVRYLNTNPVGGLLEYARSHGFAAEFKLVDQSGPPHEPKFVYQAKVGGRWFPAVCAHSKKQGKQEAADAALRVLIGENEKAERMGFTEVTPVTGASLRRTMLLLSRSPEAQPKTLPLTGSTFHDQIAMLSHRCFNTLTNSFQPSLLGRKILAAIIMKKDSEDMGVVVSLGTGNRCVKGDSLSLKGETVNDCHAEIISRRGFIRFLYSELMKYNSQTAKDSIFEPAKGGEKLQIKKTVSFHLYISTAPCGDGALFDKSCSDRAMESTESRHYPVFENPKQGKLRTKVENGEGTIPVESSDIVPTWDGIRLGERLRTMSCSDKILRWNVLGLQGALLTHFLQPIYLKSVTLGYLFSQGHLTRAICCRVTRDGSAFEDGLRHPFIVNHPKVGRVSIYDSKRQSGKTKETSVNWCLADGYDLEILDGTRGTVDGPRNELSRVSKKNIFLLFKKLCSFRYRRDLLRLSYGEAKKAARDYETAKNYFKKGLKDMGYGNWISKPQEEKNFYLCPV
- Difference (log2), untreated vs GFP (GFP-14-3-3β): 1.541 log2
- Difference (log2), PP1 vs untreated [1]: 0.1214 log2

B6: RRP12 (protein, UniProt Q5JTH9 1-1297, looked up)
RRP12-like protein: MGRSGKLPSGVSAKLKRWKKGHSSDSNPAICRHRQAARSRFFSRPSGRSDLTVDAVKLHNELQSGSLRLGKSEAPETPMEEEAELVLTEKSSGTFLSGLSDCTNVTFSKVQRFWESNSAAHKEICAVLAAVTEVIRSQGGKETETEYFAALMTTMEAVESPESLAAVAYLLNLVLKRVPSPVLIKKFSDTSKAFMDIMSAQASSGSTSVLRWVLSCLATLLRKQDLEAWGYPVTLQVYHGLLSFTVHPKPKIRKAAQHGVCSVLKGSEFMFEKAPAHHPAAISTAKFCIQEIEKSGGSKEATTTLHMLTLLKDLLPCFPEGLVKSCSETLLRVMTLSHVLVTACAMQAFHSLFHARPGLSTLSAELNAQIITALYDYVPSENDLQPLLAWLKVMEKAHINLVRLQWDLGLGHLPRFFGTAVTCLLSPHSQVLTAATQSLKEILKECVAPHMADIGSVTSSASGPAQSVAKMFRAVEEGLTYKFHAAWSSVLQLLCVFFEACGRQAHPVMRKCLQSLCDLRLSPHFPHTAALDQAVGAAVTSMGPEVVLQAVPLEIDGSEETLDFPRSWLLPVIRDHVQETRLGFFTTYFLPLANTLKSKAMDLAQAGSTVESKIYDTLQWQMWTLLPGFCTRPTDVAISFKGLARTLGMAISERPDLRVTVCQALRTLITKGCQAEADRAEVSRFAKNFLPILFNLYGQPVAAGDTPAPRRAVLETIRTYLTITDTQLVNSLLEKASEKVLDPASSDFTRLSVLDLVVALAPCADEAAISKLYSTIRPYLESKAHGVQKKAYRVLEEVCASPQGPGALFVQSHLEDLKKTLLDSLRSTSSPAKRPRLKCLLHIVRKLSAEHKEFITALIPEVILCTKEVSVGARKNAFALLVEMGHAFLRFGSNQEEALQCYLVLIYPGLVGAVTMVSCSILALTHLLFEFKGLMGTSTVEQLLENVCLLLASRTRDVVKSALGFIKVAVTVMDVAHLAKHVQLVMEAIGKLSDDMRRHFRMKLRNLFTKFIRKFGFELVKRLLPEEYHRVLVNIRKAEARAKRHRALSQAAVEEEEEEEEEEEPAQGKGDSIEEILADSEDEEDNEEEERSRGKEQRKLARQRSRAWLKEGGGDEPLNFLDPKVAQRVLATQPGPGRGRKKDHGFKVSADGRLIIREEADGNKMEEEEGAKGEDEEMADPMEDVIIRNKKHQKLKHQKEAEEEELEIPPQYQAGGSGIHRPVAKKAMPGAEYKAKKAKGDVKKKGRPDPYAYIPLNRSKLNRRKKMKLQGQFKGLVKAARRGSQVGHKNRRKDRRP
- Difference (log2), untreated vs GFP (GFP-14-3-3β): 0.888 log2
- Difference (log2), PP1 vs untreated [1]: 0.1167 log2

The next lines start with results.

- Difference (log2), PP1 vs untreated [1]: 0.1123 log2
B1: SLC39A7 (protein, UniProt Q92504 1-469, looked up)
Zinc transporter SLC39A7: MARGLGAPHWVAVGLLTWATLGLLVAGLGGHDDLHDDLQEDFHGHSHRHSHEDFHHGHSHAHGHGHTHESIWHGHTHDHDHGHSHEDLHHGHSHGYSHESLYHRGHGHDHEHSHGGYGESGAPGIKQDLDAVTLWAYALGATVLISAAPFFVLFLIPVESNSPRHRSLLQILLSFASGGLLGDAFLHLIPHALEPHSHHTLEQPGHGHSHSGQGPILSVGLWVLSGIVAFLVVEKFVRHVKGGHGHSHGHGHAHSHTRGSHGHGRQERSTKEKQSSEEEEKETRGVQKRRGGSTVPKDGPVRPQNAEEEKRGLDLRVSGYLNLAADLAHNFTDGLAIGASFRGGRGLGILTTMTVLLHEVPHEVGDFAILVQSGCSKKQAMRLQLLTAVGALAGTACALLTEGGAVGSEIAGGAGPGWVLPFTAGGFIYVATVSVLPELLREASPLQSLLEVLGLLGGVIMMVLIAHLE
- Difference (log2), untreated vs GFP (GFP-14-3-3β): 0.9479 log2

- Difference (log2), PP1 vs untreated [1, 2]: 1.978
B3: USP53 (protein, UniProt Q70EK8 1-1073, looked up)
Ubiquitin carboxyl-terminal …: MAWVKFLRKPGGNLGKVYQPGSMLSLAPTKGLLNEPGQNSCFLNSAVQVLWQLDIFRRSLRVLTGHVCQGDACIFCALKTIFAQFQHSREKALPSDNIRHALAESFKDEQRFQLGLMDDAAECFENMLERIHFHIVPSRDADMCTSKSCITHQKFAMTLYEQCVCRSCGASSDPLPFTEFVRYISTTALCNEVERMLERHERFKPEMFAELLQAANTTDDYRKCPSNCGQKIKIRRVLMNCPEIVTIGLVWDSEHSDLTEAVVRNLATHLYLPGLFYRVTDENAKNSELNLVGMICYTSQHYCAFAFHTKSSKWVFFDDANVKEIGTRWKDVVSKCIRCHFQPLLLFYANPDGTAVSTEDALRQVISWSHYKSVAENMGCEKPVIHKSDNLKENGFGDQAKQRENQKFPTDNISSSNRSHSHTGVGKGPAKLSHIDQREKIKDISRECALKAIEQKNLLSSQRKDLEKGQRKDLGRHRDLVDEDLSHFQSGSPPAPNGFKQHGNPHLYHSQGKGSYKHDRVVPQSRASAQIISSSKSQILAPGEKITGKVKSDNGTGYDTDSSQDSRDRGNSCDSSSKSRNRGWKPMRETLNVDSIFSESEKRQHSPRHKPNISNKPKSSKDPSFSNWPKENPKQKGLMTIYEDEMKQEIGSRSSLESNGKGAEKNKGLVEGKVHGDNWQMQRTESGYESSDHISNGSTNLDSPVIDGNGTVMDISGVKETVCFSDQITTSNLNKERGDCTSLQSQHHLEGFRKELRNLEAGYKSHEFHPESHLQIKNHLIKRSHVHEDNGKLFPSSSLQIPKDHNAREHIHQSDEQKLEKPNECKFSEWLNIENSERTGLPFHVDNSASGKRVNSNEPSSLWSSHLRTVGLKPETAPLIQQQNIMDQCYFENSLSTECIIRSASRSDGCQMPKLFCQNLPPPLPPKKYAITSVPQSEKSESTPDVKLTEVFKATSHLPKHSLSTASEPSLEVSTHMNDERHKETFQVRECFGNTPNCPSSSSTNDFQANSGAIDAFCQPELDSISTCPNETVSLTTYFSVDSCMTDTYRLKYHQRPKLSFPESSGFCNNSLS
- Difference (log2), untreated vs GFP (GFP-14-3-3β; [2]): 5.4971

- Difference (log2), PP1 vs untreated [1, 2]: 2.003
B4: TRIM26 (protein, UniProt Q12899 1-539, looked up)
Tripartite motif-containing …: MATSAPLRSLEEEVTCSICLDYLRDPVTIDCGHVFCRSCTTDVRPISGSRPVCPLCKKPFKKENIRPVWQLASLVENIERLKVDKGRQPGEVTREQQDAKLCERHREKLHYYCEDDGKLLCVMCRESREHRPHTAVLMEKAAQPHREKILNHLSTLRRDRDKIQGFQAKGEADILAALKKLQDQRQYIVAEFEQGHQFLREREEHLLEQLAKLEQELTEGREKFKSRGVGELARLALVISELEGKAQQPAAELMQDTRDFLNRYPRKKFWVGKPIARVVKKKTGEFSDKLLSLQRGLREFQGKLLRDLEYKTVSVTLDPQSASGYLQLSEDWKCVTYTSLYKSAYLHPQQFDCEPGVLGSKGFTWGKVYWEVEVEREGWSEDEEEGDEEEEGEEEEEEEEAGYGDGYDDWETDEDEESLGDEEEEEEEEEEEVLESCMVGVARDSVKRKGDLSLRPEDGVWALRLSSSGIWANTSPEAELFPALRPRRVGIALDYEGGTVTFTNAESQELIYTFTATFTRRLVPFLWLKWPGTRLLLRP
- Difference (log2), untreated vs GFP (GFP-14-3-3β; [2]): -0.363
